# Measured values as given in publication doi:10.1101/2025.03.30.646141v1.
# B1: APH(3’)-IIb WT (Pseudomonas aeruginosa PAO1) (protein)
# chain: MHDAATSMPPQAPSTWADYLAGYRWRGQGEGCSAATVHRLEAARRPTLFVKQEVLSAHAELPAEIARLRWLHGAGIDCPQVLNETQSDGRQWLLMSAVPGDTLSALAQRGELEPERLVRLVAAALRRLHDLDPAACPFDHRLERRLDTVRQRVEAGLVDEADFDDDHRGRSATELYRLLLDRRPAVEDLVVAHGDACLPNLLAEGRRFSGFIDCGRLGVADRHQDLALAARDIEAELGAAWAEAFLVEYGGDIDGERLAYFRLLDEFF
# What was measured:
# purified protein [1] = substrate: NC[C@H]1O[C@H](O[C@H]2[C@H](O[C@@H]3O[C@H](CO)[C@@H](O)[C@H]3O)[C@@H](O)[C@H](N)C[C@@H]2N)[C@H](N)[C@@H](O)[C@@H]1O; test: purified protein; conditions: 100 µM MgATP, Tris buffer pH 7.5, 25 °C
# purified protein [2] = substrate: NC[C@@H]1O[C@H](O[C@H]2[C@@H](O)[C@H](O[C@@H]3[C@@H](O)[C@H](N)C[C@H](N)[C@H]3O[C@H]3O[C@H](CO)[C@@H](O)[C@H](O)[C@H]3N)O[C@@H]2CO)[C@H](N)[C@@H](O)[C@@H]1O; test: purified protein; conditions: 100 µM MgATP, Tris buffer pH 7.5, 25 °C
# purified protein [3] = substrate: NC[C@@H]1O[C@H](O[C@H]2[C@@H](O)[C@H](O[C@@H]3[C@@H](O)[C@H](N)C[C@H](N)[C@H]3O[C@H]3O[C@H](CN)[C@@H](O)[C@H](O)[C@H]3N)O[C@@H]2CO)[C@H](N)[C@@H](O)[C@@H]1O; test: purified protein; conditions: 100 µM MgATP, Tris buffer pH 7.5, 25 °C
# purified protein [4] = substrate: NC[C@H]1O[C@H](O[C@H]2[C@H](O)[C@@H](O[C@H]3O[C@H](CO)[C@@H](O)[C@H](N)[C@H]3O)[C@H](N)C[C@@H]2N)[C@H](O)[C@@H](O)[C@@H]1O; test: purified protein; conditions: 100 µM MgATP, Tris buffer pH 7.5, 25 °C
# purified protein [5] = substrate: NC[C@H]1O[C@H](O[C@H]2[C@H](O)[C@@H](O[C@H]3O[C@H](CO)[C@@H](O)[C@H](N)[C@H]3O)[C@H](N)C[C@@H]2N)[C@H](N)[C@@H](O)[C@@H]1O; test: purified protein; conditions: 100 µM MgATP, Tris buffer pH 7.5, 25 °C
# steady-state kinetics [6] = substrate: Nc1ncnc2c1ncn2[C@@H]1O[C@H](COP(=O)(O)OP(=O)(O)OP(=O)(O)O)[C@@H](O)[C@H]1O; test: steady-state kinetics; format: biochemical, Pseudomonas aeruginosa; conditions: 100 µM kanamycin A, Tris buffer pH 7.5, Mg2+, 25 °C
# steady-state kinetics [7] = substrate: Nc1nc2c(ncn2[C@@H]2O[C@H](COP(=O)(O)OP(=O)(O)OP(=O)(O)O)[C@@H](O)[C@H]2O)c(=O)[nH]1; test: steady-state kinetics; format: biochemical, Pseudomonas aeruginosa; conditions: 100 µM kanamycin A, Tris buffer pH 7.5, Mg2+, 25 °C
protein,measurement,setting,value
B1,Km,purified protein [1],1.17 ± 0.26 µM
same,Km,purified protein [2],0.50 ± 0.10 µM
same,kcat,purified protein [2],2.64 ± 0.14 s⁻¹
same,Km,purified protein [3],0.27 ± 0.10 µM
same,kcat,purified protein [3],1.98 ± 0.17 s⁻¹
same,Km,purified protein [4],0.21 ± 0.10 µM
same,kcat,purified protein [4],0.58 ± 0.04 s⁻¹
same,Km,purified protein [5],0.19 ± 0.07 µM
same,kcat,purified protein [5],2.13 ± 0.20 s⁻¹
same,Km,steady-state kinetics [6],3 µM
same,kcat,steady-state kinetics [6],0.38 s⁻¹
same,Km,steady-state kinetics [7],320 µM
same,kcat,steady-state kinetics [7],0.41 s⁻¹
